Measured values as given in US20090155283A1 (published 2009).
Numbering of substitutions follows the chain as printed.

T1: IL-1R1 on MRC-5 cells (ATCC CCL-171) (human, UniProt P14778 18-569)
T1 sequence (looked up): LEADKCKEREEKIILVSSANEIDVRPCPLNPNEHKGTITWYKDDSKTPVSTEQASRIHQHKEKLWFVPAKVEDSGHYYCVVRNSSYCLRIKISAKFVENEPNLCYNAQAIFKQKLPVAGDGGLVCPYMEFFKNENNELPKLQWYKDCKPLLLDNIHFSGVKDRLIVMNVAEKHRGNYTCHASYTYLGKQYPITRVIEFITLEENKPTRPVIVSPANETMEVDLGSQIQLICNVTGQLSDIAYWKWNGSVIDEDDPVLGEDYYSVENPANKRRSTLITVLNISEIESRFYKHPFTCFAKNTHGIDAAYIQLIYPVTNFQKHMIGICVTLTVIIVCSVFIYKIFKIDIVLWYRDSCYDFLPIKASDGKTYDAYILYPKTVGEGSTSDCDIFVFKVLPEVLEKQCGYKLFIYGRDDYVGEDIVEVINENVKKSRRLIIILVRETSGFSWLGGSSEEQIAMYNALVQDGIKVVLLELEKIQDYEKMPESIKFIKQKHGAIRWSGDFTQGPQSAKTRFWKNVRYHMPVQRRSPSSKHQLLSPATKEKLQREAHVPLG

B1: DOM4-122-6 (other)
VL: DIQMTQSPSSLSASVGDRVTITCRASQWIGRELRWYQQKPGKAPMFLIYHASRLQSGVPSRFSGSGSGTDFTLTISSLQPEDFATYYCQQYHGWPLTFGQGTKVEIKR
B2: DOM4-129-1 (other)
VL: B1 VL with W28N, G30D, S56R, G93D, W94F
B3: DOM4-122-23 (other)
VL: B1 VL with S56R

What follows are binders tested against T1, IL-1R1 on MRC-5 cells (ATCC CCL-171) (assay: cell-based or functional assay).

Row | ND50, inhibition of IL-1-induced IL-8 release from MRC-5 cells [nM] | Binder
1 | ~10 | B1
2 | ~10 | B2
3 | ~1 | B3
